Measured values reported in patent US20250382363A1 (NUMAB THERAPEUTICS, published 2025).

Key:
[1] = target: pre-existing anti-drug antibodies (ADA) present in human sera; assay: pre-existing ADA ELISA, scFv coated, human sera unspiked vs spiked
[2] = target: T1, human a-PD-L1 Fc (Sino Biological, 10084-H02H, LC11NO2402) (human, UniProt Q9NZQ7 19-239); assay: SPR, PD-L1 Fc immobilised, scFv analyte, 1:1 fit
T1 construct: Bought Fc fusion immobilised on the SPR chip; Printed as 'a-PD-L1 Fc' but used as the antigen (ligand) for the anti-PD-L1 scFvs; also called Human PD-L1; not shown: Fc part
Protocol: The mutation variants were then injected at concentrations of 10 nM, 2 nM and 0.4 nM over the ligand-immobilized and reference spots. The wild type variants were used as a control, while an empty spot was used as reference.
After each cycle with analyte, the surface was regenerated with a 3M MgCl₂ solution, thereby allowing the next analyte cycle to have only free ligand available. Binding affinity KD was globally calculated by the Bruker SPR software based on the binding association (kₒₙ) and dissociation (Koff) rate, by fitting a 1:1 Langmuir model to the curves obtained by the cycles with the three different concentrations of the analyte.

T1 sequence (Q9NZQ7 19-239 limits assumed): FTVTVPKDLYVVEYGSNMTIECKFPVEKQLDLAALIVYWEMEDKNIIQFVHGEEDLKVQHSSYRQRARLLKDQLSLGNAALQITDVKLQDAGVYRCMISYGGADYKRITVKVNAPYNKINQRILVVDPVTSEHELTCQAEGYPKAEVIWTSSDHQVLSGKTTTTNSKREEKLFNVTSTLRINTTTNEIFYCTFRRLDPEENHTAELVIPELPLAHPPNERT

| Binder | Mean No of serum samples >30% inhibition (30% CCP) with SCP (serum samples) [1] | No of serum samples >30% inhibition (30% CCP) without SCP (serum samples) [1] | Kd [2] | n-fold to wt [2] |
| --- | --- | --- | --- | --- |
| PRO2230 (scFv 37-20-B03-sc09.1) (scFv, also called PRO2230 wt; a-PD-L1 wt) scFv: DIQMTQSPASLSASVGDRVTITCQASQSIGTYLAWYQQKPGKPPKLLIYRAFILASGVPSRFSGSGSGTDFTLTISSLQPEDFATYYCQSNFYSDSTTIGPNAFGTGTKVTVLGGGGGSGGGGSGGGGSGGGGSEVQLVESGGGLVQPGGSLRLSCAASGFSFNSDYWIYWVRQAPGKGLEWIASIYGGSSGNTQYASWAQGRFTISRDNSKNTVYLQMNSLRAEDTAVYFCARGYVDYGGATDLWGQGTLVTVSS | 9 | 18 | 49 pM | 1 fold |
| PRO2903 (scFv 37-20-B03-sc09.1_(L12R, V103T, L144Q)) (scFv, VH substitutions, AHo numbering; also called PRO2230-L12R-V103T-L144Q) scFv: DIQMTQSPASLSASVGDRVTITCQASQSIGTYLAWYQQKPGKPPKLLIYRAFILASGVPSRFSGSGSGTDFTLTISSLQPEDFATYYCQSNFYSDSTTIGPNAFGTGTKVTVLGGGGGSGGGGSGGGGSGGGGSEVQLVESGGGRVQPGGSLRLSCAASGFSFNSDYWIYWVRQAPGKGLEWIASIYGGSSGNTQYASWAQGRFTISRDNSKNTVYLQMNSLRAEDTATYFCARGYVDYGGATDLWGQGTQVTVSS | 5 | 5 | 53 pM | 1.1 fold |
| PRO2913 (scFv 37-20-B03-sc09.1_(T101S, T146Q)) (scFv, PRO2230 variant; VH substitutions, AHo numbering; also called PRO2230 T101S-T146Q) scFv: DIQMTQSPASLSASVGDRVTITCQASQSIGTYLAWYQQKPGKPPKLLIYRAFILASGVPSRFSGSGSGTDFTLTISSLQPEDFATYYCQSNFYSDSTTIGPNAFGTGTKVTVLGGGGGSGGGGSGGGGSGGGGSEVQLVESGGGLVQPGGSLRLSCAASGFSFNSDYWIYWVRQAPGKGLEWIASIYGGSSGNTQYASWAQGRFTISRDNSKNTVYLQMNSLRAEDSAVYFCARGYVDYGGATDLWGQGTLVQVSS | 3 | 2 | 58 pM | 1.2 fold |
| PRO2914 (scFv 37-20-B03-sc09.1_(T101S, L144A, T146Q)) (scFv, PRO2230 variant; VH substitutions, AHo numbering; also called PRO2230 T101S-L144A-T146Q) scFv: DIQMTQSPASLSASVGDRVTITCQASQSIGTYLAWYQQKPGKPPKLLIYRAFILASGVPSRFSGSGSGTDFTLTISSLQPEDFATYYCQSNFYSDSTTIGPNAFGTGTKVTVLGGGGGSGGGGSGGGGSGGGGSEVQLVESGGGLVQPGGSLRLSCAASGFSFNSDYWIYWVRQAPGKGLEWIASIYGGSSGNTQYASWAQGRFTISRDNSKNTVYLQMNSLRAEDSAVYFCARGYVDYGGATDLWGQGTAVQVSS | 5 | 5 | 25 pM | 0.5 fold |
| PRO2915 (scFv 37-20-B03-sc09.1_(L12A, T101S, L144A, T146Q)) (scFv, PRO2230 variant; VH substitutions, AHo numbering; also called PRO2230 L12A-T101S-L144A-T146Q) scFv: DIQMTQSPASLSASVGDRVTITCQASQSIGTYLAWYQQKPGKPPKLLIYRAFILASGVPSRFSGSGSGTDFTLTISSLQPEDFATYYCQSNFYSDSTTIGPNAFGTGTKVTVLGGGGGSGGGGSGGGGSGGGGSEVQLVESGGGAVQPGGSLRLSCAASGFSFNSDYWIYWVRQAPGKGLEWIASIYGGSSGNTQYASWAQGRFTISRDNSKNTVYLQMNSLRAEDSAVYFCARGYVDYGGATDLWGQGTAVQVSS | 2 | 1 | 50 pM | 1 fold |
| PRO2933 (scFv 37-20-B03-sc09.1_(L144K, T146E, S148K)) (scFv, PRO2230 variant; VH substitutions, AHo numbering; also called PRO2230 L144K-T146E-S148K) scFv: DIQMTQSPASLSASVGDRVTITCQASQSIGTYLAWYQQKPGKPPKLLIYRAFILASGVPSRFSGSGSGTDFTLTISSLQPEDFATYYCQSNFYSDSTTIGPNAFGTGTKVTVLGGGGGSGGGGSGGGGSGGGGSEVQLVESGGGLVQPGGSLRLSCAASGFSFNSDYWIYWVRQAPGKGLEWIASIYGGSSGNTQYASWAQGRFTISRDNSKNTVYLQMNSLRAEDTAVYFCARGYVDYGGATDLWGQGTKVEVKS | 1 | 0 | 45 pM | 0.9 fold |
| PRO2934 (scFv 37-20-B03-sc09.1_(L144K, S148L)) (scFv, PRO2230 variant; VH substitutions, AHo numbering; also called PRO2230 L144K-S148L) scFv: DIQMTQSPASLSASVGDRVTITCQASQSIGTYLAWYQQKPGKPPKLLIYRAFILASGVPSRFSGSGSGTDFTLTISSLQPEDFATYYCQSNFYSDSTTIGPNAFGTGTKVTVLGGGGGSGGGGSGGGGSGGGGSEVQLVESGGGLVQPGGSLRLSCAASGFSFNSDYWIYWVRQAPGKGLEWIASIYGGSSGNTQYASWAQGRFTISRDNSKNTVYLQMNSLRAEDTAVYFCARGYVDYGGATDLWGQGTKVTVLS | 2 | 2 | 18 pM | 0.4 fold |
| PRO2935 (scFv 37-20-B03-sc09.1_(L144A, S148N)) (scFv, PRO2230 variant; VH substitutions, AHo numbering; also called PRO2230 L144A-S148N) scFv: DIQMTQSPASLSASVGDRVTITCQASQSIGTYLAWYQQKPGKPPKLLIYRAFILASGVPSRFSGSGSGTDFTLTISSLQPEDFATYYCQSNFYSDSTTIGPNAFGTGTKVTVLGGGGGSGGGGSGGGGSGGGGSEVQLVESGGGLVQPGGSLRLSCAASGFSFNSDYWIYWVRQAPGKGLEWIASIYGGSSGNTQYASWAQGRFTISRDNSKNTVYLQMNSLRAEDTAVYFCARGYVDYGGATDLWGQGTAVTVNS | 8 | 8 | 91 pM | 1.9 fold |
| PRO2947 (scFv 37-20-B03-sc09.1_(T146K)) (scFv, PRO2230 variant; VH substitution, AHo numbering; also called PRO2230 T146K) scFv: DIQMTQSPASLSASVGDRVTITCQASQSIGTYLAWYQQKPGKPPKLLIYRAFILASGVPSRFSGSGSGTDFTLTISSLQPEDFATYYCQSNFYSDSTTIGPNAFGTGTKVTVLGGGGGSGGGGSGGGGSGGGGSEVQLVESGGGLVQPGGSLRLSCAASGFSFNSDYWIYWVRQAPGKGLEWIASIYGGSSGNTQYASWAQGRFTISRDNSKNTVYLQMNSLRAEDTAVYFCARGYVDYGGATDLWGQGTLVKVSS | 1 | 2 | 41 pM | 0.8 fold |
| PRO2948 (scFv 37-20-B03-sc09.1_(T146R)) (scFv, PRO2230 variant; VH substitution, AHo numbering; also called PRO2230 T146R) scFv: DIQMTQSPASLSASVGDRVTITCQASQSIGTYLAWYQQKPGKPPKLLIYRAFILASGVPSRFSGSGSGTDFTLTISSLQPEDFATYYCQSNFYSDSTTIGPNAFGTGTKVTVLGGGGGSGGGGSGGGGSGGGGSEVQLVESGGGLVQPGGSLRLSCAASGFSFNSDYWIYWVRQAPGKGLEWIASIYGGSSGNTQYASWAQGRFTISRDNSKNTVYLQMNSLRAEDTAVYFCARGYVDYGGATDLWGQGTLVRVSS | 1 | 0 | 64 pM | 1.3 fold |
| PRO2949 (scFv 37-20-B03-sc09.1_(T146E)) (scFv, PRO2230 variant; VH substitution, AHo numbering; also called PRO2230 T146E) scFv: DIQMTQSPASLSASVGDRVTITCQASQSIGTYLAWYQQKPGKPPKLLIYRAFILASGVPSRFSGSGSGTDFTLTISSLQPEDFATYYCQSNFYSDSTTIGPNAFGTGTKVTVLGGGGGSGGGGSGGGGSGGGGSEVQLVESGGGLVQPGGSLRLSCAASGFSFNSDYWIYWVRQAPGKGLEWIASIYGGSSGNTQYASWAQGRFTISRDNSKNTVYLQMNSLRAEDTAVYFCARGYVDYGGATDLWGQGTLVEVSS | 1 | 2 | 56 pM | 1.1 fold |
